Among the targets are Bs-CspB G54A (Bacillus subtilis, UniProt P32081 1-67, G54A); Bs-CspB F27A (Bacillus subtilis, UniProt P32081 1-67, F27A); Bs-CspB Q59A (Bacillus subtilis, UniProt P32081 1-67, Q59A); Bs-CspB F30A (Bacillus subtilis, UniProt P32081 1-67, F30A); Bs-CspB K7A (Bacillus subtilis, UniProt P32081 1-67, K7A); Bs-CspB G35A (Bacillus subtilis, UniProt P32081 1-67, G35A); Bs-CspB F30W (Bacillus subtilis, UniProt P32081 1-67, F30W); Bs-CspB R56A (Bacillus subtilis, UniProt P32081 1-67, R56A); Bs-CspB F17A (Bacillus subtilis, UniProt P32081 1-67, F17A); Bs-CspB K13Q (Bacillus subtilis, UniProt P32081 1-67, K13Q); Bs-CspB G54P (Bacillus subtilis, UniProt P32081 1-67, G54P); Bs-CspB H29Q (Bacillus subtilis, UniProt P32081 1-67, H29Q); Bs-CspB D25A (Bacillus subtilis, UniProt P32081 1-67, D25A); Bs-CspB F38A (Bacillus subtilis, UniProt P32081 1-67, F38A); Bs-CspB F15A (Bacillus subtilis, UniProt P32081 1-67, F15A); Bs-CspB P58A (Bacillus subtilis, UniProt P32081 1-67, P58A); Bs-CspB F15Y (Bacillus subtilis, UniProt P32081 1-67, F15Y); Bs-CspB G35P (Bacillus subtilis, UniProt P32081 1-67, G35P).

Holding throughout (experiment): tryptophan fluorescence quenching
Data set [1] addresses T1, Bs-CspB (Bacillus subtilis, UniProt P32081 1-67).
Data set [2] has as its target T1, Bs-CspB. The source holds these as a separate data set.
Data set [3] concerns the target T1, Bs-CspB. The source holds these as a separate data set.
For data set [4], the target named is T1, Bs-CspB. This is another data set of the same source.
Data set [5] addresses T1, Bs-CspB. The source holds these as a separate data set.
Data set [6] has as its target T1, Bs-CspB. The source holds these as a separate data set.
In data set [7] the target is T1, Bs-CspB. This is another data set of the same source.

Like-named read-outs stand apart in the source and are kept apart here.

AAGTTCTGGTTTTGAG (ssDNA) [dcb2_br]: the Kd – broadly, the free concentration of one partner at which half of the binding sites on the other are occupied at equilibrium, for simple one-to-one binding – with Bs-CspB [1] turned out to be 30 ± 2 nM. The same measure, in the same setting: as for GTTTTGTAAGAGT (ssDNA) [dcb2ds_13], the figure is 66 ± 21 nM. In the data set with Bs-CspB [2], TTTTTT (ssDNA) [dT6] had a Kd of 326 ± 20 nM. In the data set with Bs-CspB [1], ATTATTTTTGTTC (ssDNA) [dcb1_a] showed a Kd of 44 ± 2 nM. For the molecule TTTTTTT (ssDNA) [dT7], the Kd with Bs-CspB G54A was determined as 1.3 ± 0.3 nM; with Bs-CspB F27A, 286 ± 7 nM; with Bs-CspB Q59A, 2.7 ± 0.4 nM; in the data set with Bs-CspB F30A it was 208 ± 11 nM; with Bs-CspB K7A, 6.4 ± 0.6 nM; with Bs-CspB G35A, 1.1 ± 0.3 nM. The Kd is 1.3 ± 0.3 nM in the data set with Bs-CspB F30W; 11.8 ± 1.4 nM with Bs-CspB R56A; 345 ± 63 nM in the data set with Bs-CspB F17A; 25 ± 3 nM with Bs-CspB K13Q; 220 ± 9 nM with Bs-CspB G54P; 104 ± 6 nM with Bs-CspB H29Q. Besides, the Kd with Bs-CspB D25A came out at 21.4 ± 0.5 nM; with Bs-CspB F38A, 228 ± 9 nM; in the data set with Bs-CspB F15A, 135 ± 4 nM; with Bs-CspB P58A, 1.3 ± 0.2 nM; with Bs-CspB F15Y, 1.4 ± 0.4 nM; with Bs-CspB G35P, 118 ± 5 nM. In the data set with Bs-CspB [3], this molecule had a Kd of 1.8 ± 0.4 nM. Regarding GAGTTTTGGTCTTGAA (ssDNA) [dcb2_b], in the data set with Bs-CspB [1], binding was characterised by a dissociation constant (Kd) of 43 ± 2 nM.

For TTTAAGAAGAAAGTTTT (ssDNA) [dcb2_a], the Kd in the data set with Bs-CspB [1] is 460 ± 34 nM. The same measure, in the same setting: as for GAGCAAGAATAGG (ssDNA) [dcb1_b], the figure is 1160 ± 90 nM. Consider CTCCTTC (ssDNA), for which binding in the data set with Bs-CspB [4] was put at a Kd of 12.5 ± 0.6 nM. As for CTCTTTC (ssDNA), the affinity in the data set with Bs-CspB [4], expressed as Kd, was 3.9 ± 0.2 nM. In the data set with Bs-CspB [1], GGATAAGAACGAG (ssDNA) [dcb1_br] came in with a Kd of 1090 ± 110 nM.

CTGATTGGCCAA (ssDNA) [Y-box12] yielded a Kd with Bs-CspB [5] of 2030 ± 390 nM. CTCTTCC (ssDNA): the Kd in the data set with Bs-CspB [4] came to 66.2 ± 4.8 nM. Consider CTCTCTC (ssDNA), for which binding with Bs-CspB [4] was put at a Kd of 10.8 ± 0.9 nM. TTATTAG (ssDNA) [dcb1] showed a Kd with Bs-CspB [2] of 20 ± 3 nM.

Consider TATTGGT (ssDNA) [Y-box7], for which binding with Bs-CspB [6] was put at a Kd of 530 ± 50 nM. The molecule CCCCCC (ssDNA) [dC6] had a Kd with Bs-CspB [2] of 12600 ± 1000 nM. On to CTTTTTC (ssDNA), for which the Kd in the data set with Bs-CspB [4] is 33.7 ± 4.1 nM. Regarding ATTGG (ssDNA) [Y-box5], in the data set with Bs-CspB [2], the Kd was determined as 5300 ± 1000 nM.

In the data set with Bs-CspB [7], ATCCTACTGATTGGCCCAGGTGCTG (ssDNA) [Y-box25] showed a Kd of 3.92 ± 0.045 µM.

For the origin of these results see paper PMC1636342.
